In patent US12226476B2, “Helper epitope peptide and application thereof” (CHINA PHARMACEUTICAL UNIVERSITY, priority 2018, dated 2025) one finds antibody titer and antibody titers data, which are given here for eight molecules.

Holding throughout (assay): Antibody titer in serum of immunized mice, indirect ELISA
Common to all, as to format: in vivo
For orientation: ELISA stands for enzyme-linked immunosorbent assay.

Test [1] concerns EGFR. As to conditions: FIG. 4; compared with the EGFR group and the EGFR-PADRE group; mice immunized subcutaneously, 50 μg, Freund's adjuvant. The protocol: (§1) The protocol is as follows: • (1) The helper epitope was connected to individual antigens or antigen epitope with the linking peptide to construct multiple fusion antigens. The sequence of the linking peptide is GPSL (i.e. Gly-Pro-Ser-Leu) (SEQ ID NO:51). • (2) The fusion antigens from (1) were emulsified adequately with complete Freund's adjuvant of the same volume. Then to immunize mice via subcutaneous injection with the emulsion at the dose of 50 μg per mouse. The strains of experimental mice including C57, Fvb and Balb/C. After 7 days and 14 days of first immunization, the fusion antigens from (1) were emulsified adequately with incomplete Freund's adjuvant of the same volume and then to immunize mice via subcutaneous injection with the emulsion at the dose of 50 μg per mouse. • (3) There are two detection methods. One is to obtain the orbital blood of immunized mice on 7, 14, 21 and 28 day respectively, centrifuge the whole blood to get the serum. Then the antibody titer is detected by indirect ELISA. The other one is: one week after the last immunization, the mice are killed to get the spleen. PBMC (peripheral blood mononuclear cells) are isolated, and the CTL-mediated cytotoxicity is detected by LDH (lactate dehydrogenase) kit.
(§2) The first step was to construct the fusion antigen. According to each fusion antigen, C57BL/6 female mice aged 6-8 weeks were randomly divided into three groups with 6 mice in each group. They were PBS group, existing antigen or antigen epitope group, antigen-PADRE or antigen epitope-PADRE group, and vaccine group containing fusion antigen.
(§3) In the second step, using fusion antigen to immunize mice via subcutaneous injection for 3 times […] 50 μg each time. Mixed with Freund's adjuvant of the same volume.
(§4) Method 1: The whole blood was collected every week after immunization and centrifugated at 6000 rpm for 20 min to obtain the serum for a total of 4 weeks. Antibody titers were detected by indirect ELISA as follows: • (1) Coating: the existing antigen or antigen epitope was diluted to 5 μg/mL with coating solution. Then the 100 μL mixed solution was added into each well of enzyme immunoassay test strip, and incubated in 37° C. incubator for 2 h; • (2) use PBST to wash each well 5 times for 5 min each time; • (3) Sealing: 150 μL locking solution was added to each well of the enzyme immunoassay test strip and incubated at 4° C. overnight. • (4) Repeat step (2); • (5) Incubation first antibody: the collected mouse serum was diluted with antibody diluent. Then the 100 μL mixed solution was added into each well, and incubated at 37° C. for 2 h; • (6) Repeat step (2); • (7) Incubating secondary antibodies: HRP-GOAT Anti-mouse IgG was diluted with antibody dilution in the ratio of 1:10000, and 100 μL dilution was added to each well, and incubated at 37° C. for 45 min; • (8) Repeat step (2); • (9) Substrate addition: 100 μL TMB substrate reaction solution was added into each well of enzyme label, and incubated at 37° C. for 15 min in darkness. • (10) Termination reaction: 50 μL 2M H2SO4 was added into each well to terminate the reaction. • (11) Color development: the absorbance value of the sample in each well was detected at 450/630 nm.

Test [2] has as its system CD20. As to conditions: FIG. 5; compared with the CD20 group and the CD20-PADRE group; mice immunized subcutaneously, 50 μg, Freund's adjuvant. The protocol:
as §1, §2, §3, §4

Test [3] relates to TOLL-1. The conditions noted are these: FIG. 12; compared with the TOLL-1 group and the TOLL-1-PADRE group; mice immunized subcutaneously, 50 μg, Freund's adjuvant. The protocol:
as §1, §2, §3, §4

For test [4], the system named is PD-L1 molecule. The conditions noted are these: FIG. 2; compared with the PD-L1 group and the PD-L1-PADRE group; mice immunized subcutaneously, 50 μg, Freund's adjuvant. The protocol:
as §1, §2, §3, §4

Test [5] relates to IL-2Ra. The conditions noted are these: FIG. 9; compared with the IL-2Ra group and the IL-2Ra-PADRE group; mice immunized subcutaneously, 50 μg, Freund's adjuvant. Here is the method: as §1, §2, §3, §4
In test [6] the test system is PSMA. As to conditions: FIG. 11; compared with the PSMA group and the PSMA-PADRE group; mice immunized subcutaneously, 50 μg, Freund's adjuvant. The protocol:
as §1, §2, §3, §4

The subject of test [7] is VEGFR extracellular domain. The conditions noted are these: FIG. 8; compared with the VEGFR extracellular region group and the VEGFR-PADRE group; mice immunized subcutaneously, 50 μg, Freund's adjuvant. The protocol:
as §1, §2, §3, §4

Test [8] deals with CD66e. As to conditions: FIG. 6; compared with the CD66e group and the CD66e-PADRE group; mice immunized subcutaneously, 50 μg, Freund's adjuvant. The protocol: as §1, §2, §3, §4

Non-standard residues stand in square brackets, D forms with d. Phe(4-NO2) = N[C@@H](Cc1ccc([N+](=O)[O-])cc1)C(=O)O

B1: EGFR-4pPhe-PADRE: fusion antigen: EGFR linked via GPSL to helper epitope SEQ ID NO: 5 (protein)
chain: MERKERPFDVIGQLAALRRYARSLVRNSDDAEDLVHDALLRAYEKKQSFRRGGNLRTWLLSIMHNAHIDRVRQARSLARRHDEAAVEAEQSLQAGQEHAVRLKQVRDAFFHLSEEQREALHLVAIEDLSYQEAAMALDIPIGTLMSRISRARAQLREFEEKTPRAAHLRLIGGDGNEGNGPSLAKF[Phe(4-NO2)]AAWTLKAAA
As to B1, the antibody titer entry in test [1] is recorded as “increased significantly”.

B2: CD20-5pPhe-PADRE: fusion antigen: CD20 linked via GPSL to helper epitope SEQ ID NO: 6 (protein)
chain: MTTPRNSVNGTFPAEPMKGPIAMQSGPKPLFRRMSSLVGPTQSFFMRESKTLGAVQIMNGLFHIALGGLLMIPAGIYAPICVTVWYPLWGGIMYIISGSLLAATEKNSRKCLVKGKMIMNSLSLFAAISGMILSIMDILNIKISHFLKMESLNFIRAHTPYINIYNCEPANPSEKNSPSTQYCYSIQSLFLGILSVMLIFAFFQELVIAGIVENEWKRTCSRPKSNIVLLSAEEKKEQTIEIKEEVVGLTETSSQPKNEEDIEIIPIQEEEEEETETNFPEPPQDQESSPIENDSSPGPSLAKFV[Phe(4-NO2)]AWTLKAAA
With B2, the antibody titer result in test [2] is “significant increase”.

B3: TOLL/1-12pPhe-PADRE: fusion antigen: TOLL-1 linked via GPSL to helper epitope SEQ ID NO: 13 (protein)
chain: SEFLVDRSKNGLIHVPKDLSQKTTILNISQNYISELWTSDILSLSKLRILIISHNRIQYLDISVFKFNQELEYLDLSHNKLVKISCHPTVNLKHLDLSFNAFDALPICKEFGNMSQLKFLGLSTTHLEKSSVLPIAHLNISKVLLVLGETYGEKEDPEGLQDFNTESLHIVFPTNKEFHFILDVSVKTVANLELSNIKCVLEDNKCSYFLSILAKLQTNPKLSNLTLNNIETTWNSFIRILQLVWHTTVWYFSISNVKLQGQLDFRDFDYSGTSLKALSIHQVVSDVFGFPQSYIYEIFSNMNIKNFTVSGTRMVHMLCPSKISPFLHLDFSNNLLTDTVFENCGHLTELETLILQMNQLKELSKIAEMTTQMKSLQQLDISQNSVSYDEKKGDCSWTKSLLSLNMSSNILTDTIFRCLPPRIKVLDLHSNKIKSIPKQVVKLEALQELNVAFNSLTDLPGCGSFSSLSVLIIDHNSVSHPSADFFQSCQKMRSIKAGDNPFQCTCELGEFVKNIDQVSSEVLEGWPDSYKCDYPESYRGTLLKDFHMSELSCNITGPSLAKFVAAWTLKA[Phe(4-NO2)]A
As to B3, the antibody titers entry in test [3] is listed as “increased significantly”.

B4: PD/L1-2pPhe-PADRE: fusion antigen: PD-L1 molecule linked via GPSL to helper epitope SEQ ID NO: 3 (protein)
chain: MQLKPMEINPEMLNKVLSRLGVAGQWRFVDVLGLEEESLGSVPAPACALLLLFPLTAQHENFRKKQIEELKGQEVSPKVYFMKQTIGNSCGTIGLIHAVANNQDKLGFEDGSVLKQFLSETEKMSPEDRAKCFEKNEAIQAAHDAVAQEGQCRVDDKVNFHFILFNNVDGHLYELDGRMPFPVNHGASSEDTLLKDAAKVCREFTEREQGEVRFSAVALCGPSLA[Phe(4-NO2)]FVAAWTLKAAA
Turning to B4, the antibody titer entry in test [4] is listed as “significant increase”.

B5: IL/2Ra-9pPhe-PADRE: fusion antigen: IL-2Ra linked via GPSL to helper epitope SEQ ID NO: 10 (protein)
chain: ELCDDDPPEIPHATFKAMAYKEGTMLNCECKRGFRRIKSGSLYMLCTGNSSHSSWDNQCQCTSSATRNTTKQVTPQPEEQKERKTTEMQSPMQPVDQASLPGHCREPPPWENEATERIYHFVVGQMVYYQCVQGYRALHRGPAESVCKMTHGKTRWTQPQLICTGEMETSQFPGEEKPQASPEGRPESETSCLVTTTDFQIQTEMAATMETSIFTTEYQGPSLAKFVAAWT[Phe(4-NO2)]KAAA
For B5, the antibody titers result in test [5] is reported as “increased significantly”.

B6: PSMA-11pPhe-PADRE: fusion antigen: PSMA linked via GPSL to helper epitope SEQ ID NO: 12 (protein)
chain: QGQAQQQAYDRGITIFSPDGRLYQVEYAREAVKRGTASIGVRTPEGVVLAADKRSRSPLMEPTSVEKIHKADDHIGIASAGHVADARQLIDFARRQSQVNRLRYGEPIGIETLTKEVTDHIQQYTQVGGARPFGVALLIGGVENGTPRLYETDPSGTPYEWKAVSIGADRGDHQEHLEENFRDDLTLDEGIELALEAIASTSDEGTAPDGVDVATVSAETERFVELSNDEIESYLEANDLLATEDDEQTEEGPSLAKFVAAWTLK[Phe(4-NO2)]AA
With B6, the antibody titers entry in test [6] was “increased significantly”.

B7: VEGFR-8pPhe-PADRE: fusion antigen: VEGFR extracellular domain linked via GPSL to helper epitope SEQ ID NO: 9 (protein)
chain: ASVGLPSVSLDLPRLSIQKDILTIKANTTLQITCRGQRDLDWLWPNNQSGSEQRVEVTECSDGLFCKTLTIPKVIGNDTGAYKCFYRETDLASVIYVYVQDYRSPFIASVSDQHGVVYITENKNKTVVIPCLGSISNLNVSLCARYPEKRFVPDGNRISWDSKKGFTIPSYMISYAGMVFCEAKINDESYQSIMYIVVVVGYRIYDVVLSPSHGIELSVGEKLVLNCTARTELNVGIDFNWEYPSSKHQHKKLVNRDLKTQSGSEMKKFLSTLTIDGVTRSDQGLYTCAASSGLMTKKNSTFVRVHEKPFVAFGSGMESLVEATVGERVRIPAKYLGYPPPEIKWYKNGIPLESNHTIKAGHVLTIMEVSERDTGNYTVILTNPISKEKQSHVVSLVVYVPPQIGEKSLISPVDSYQYGTTQTLTCTVYAIPPPHHIHWYWQLEEECANEPSQAVSVTNPYPCEEWRSVEDFQGGNKIEVNKNQFALIEGKNKTVSTLVIQAANVSALYKCEAVNKVGRGERVISFHVTRGPEITLQPDMQPTEQESVSLWCTADRSTFENLTWYKLGPQPLPIHVGELPTPVCKNLDTLWKLNATMFSNSTNDILIMELKNASLQDQGDYVCLAQDRKTKKRHCVVRQLTVLERVAPTITGNLENQTTSIGESIEVSCTASGNPPPQIMWFKDNETLVEDSGIVLKDGNRNLTIRRVRKEDEGLYTCQACSVLGCAKVEAFFIIEGAQEKTNLEGPSLAKFVAAW[Phe(4-NO2)]LKAAA
In the case of B7, in test [7], the antibody titers entry is listed as “increased significantly”.

B8: CD66e-6pPhe-PADRE: fusion antigen: CD66e linked via GPSL to helper epitope SEQ ID NO: 7 (protein)
chain: KLTIESTPFNVAEGKEVLLLVHNLPQHLFGYSWYKGERVDGNRQIIGYVIGTQQATPGPAYSGREIIYPNASLLIQNIIQNDTGFYTLHVIKSDLVNEEATGQFRVYPELPKPSISSNNSKPVEDKDAVAFTCEPETQDATYLWWVNNQSLPVSPRLQLSNGNRTLTLFNVTRNDTASYKCETQNPVSARRSDSVILNVLYGPDAPTISPLNTSYRSGENLNLSCHAASNPPAQYSWFVNGTFQQSTQELFIPNITVNNSGSYTCQAHNSDTGLNRTTVTTITVYAEPPKPFITSNNSNPVEDEDAVALTCEPEIQNTTYLWWVNNQSLPVSPRLQLSNDNRTLTLLSVTRNDVGPYECGIQNKLSVDHSDPVILNVLYGPDDPTISPSYTYYRPGVNLSLSCHAASNPPAQYSWLIDGNIQQHTQELFISNITEKNSGLYTCQANNSASGHSRTTVKTITVSAELPKPSISSNNSKPVEDKDAVAFTCEPEAQNTTYLWWVNGQSLPVSPRLQLSNGNRTLTLFNVTRNDARAYVCGIQNSVSANRSDPVTLDVLYGPDTPIISPPDSSYLSGANLNLSCHSASNPSPQYSWRINGIPQQHTQVLFIAKITPNNNGTYACFVSNLATGRNNSIVKSITVSASGTSPGLSAGPSLAKFVA[Phe(4-NO2)]WTLKAAA
With B8, the antibody titer result in test [8] is given as “significant increase”.
